± gives the standard deviation of the averaged measurements.
test system: ATP; experiment: switch fluorescence ratio, 500 uM ATP over buffer (Cy3 cluster intensity, sum of 5 cycles each) (fold (ratio)); higher = stronger signal-on switching upon ATP binding; sequences stand for … in TCGTCGGCAGCGTCAGATGTGTATAAGAGACAGTTTTTTTTTTTTTTTTTTTTTTTTT…TC; details: aptamer strand: ATP DNA aptamer (quencher-CACCTGGGGGAGTATTGCGGAGGAAGG + anchor), 100 nM annealed; ATP concentration: 500 uM
Outline: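 Between each of five buffer/ATP cycles, the flow-cell was stripped with NaOH and re-annealed. Each cycle imaged Cy3-labelled switching-strand clusters, annealed to 100 nM quencher-labelled ATP aptamer on a modified Illumina MiSeq flow-cell, first in selection buffer and then after 15 min with 500 uM ATP at 22 °C. The fluorescence ratio is summed target-cycle over summed buffer-cycle Cy3 intensity per cluster, averaged per switch-domain sequence, with clusters outside 100-1000 RFU excluded.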
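Note: ATP exposure 15 min at 22 °C before imaging.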

Row | Sequence | switch fluorescence ratio
1 | AAATCTGCTG | 1 ± 0.061
2 | TCTGGTTGGA | 1.04 ± 0.025
3 | AGACGGCGTG | 0.9799 ± 0.0066
4 | TAGGGATGGG | 1.02 ± 0.019
5 | CAGTTGGGTT | 1.02 ± 0.041
6 | ACTTTATTGG | 1.03 ± 0.024
7 | TCTATAGTAA | 1.057 ± 0.0087
8 | AGTTTATTC | 1.01 ± 0.061
9 | ATTAGGGGGA | 1.03 ± 0.014
10 | TTGTTCTGGG | 0.972 ± 0.022
11 | GGGGAGGTTT | 0.966 ± 0.02
12 | TCGGCACGGA | 0.999 ± 0.031
13 | GATGGGGCGG | 1.01 ± 0.048
14 | TATGAGATTA | 0.9935 ± 0.004
15 | CAGATTGGGG | 1 ± 0.025
16 | GTTTGCCATG | 0.998 ± 0.047
17 | GGGTCTCATC | 1.02 ± 0.065
18 | ATTACTGGTG | 1.1 ± 0.019
19 | ATTTCTGTTT | 1 ± 0.015
20 | AATTGTATTA | 0.973 ± 0.041
21 | AGGGTAAGGA | 1.09 ± 0.18
22 | CGGGGGAGCC | 1.02 ± 0.025
23 | ACAGGAGGAA | 1.01 ± 0.046

Row | Sequence | switch fluorescence ratio
24 | TTGATCGGGC | 1.03 ± 0.052
25 | AGAGATGGGG | 0.996 ± 0.022
26 | TCCCTGTTTT | 0.991 ± 0.016
27 | TTATGTTTG | 1.012 ± 0.0031
28 | CCAGGAGTAG | 1.034 ± 0.0039
29 | TAGCATAACC | 1.181 ± 0.0097
30 | CACTAATTAA | 1.004 ± 0.009
31 | GTTGTATTAG | 0.988 ± 0.025
32 | TATACTGGGA | 0.995 ± 0.012
33 | GCCCAGTCCT | 1.03 ± 0.02
34 | CTGGCCGTTT | 1.016 ± 0.01
35 | CGCTATTTTT | 1.02 ± 0.02
36 | AATCTTGATT | 1.2 ± 0.24
37 | TTTAAGAGAT | 0.998 ± 0.028
38 | CAACTGCAGC | 1.26 ± 0.049
39 | TGGGTTTATT | 0.984 ± 0.014
40 | TACGGGGTAA | 0.995 ± 0.022
41 | GCTGCGGTTT | 0.993 ± 0.013
42 | GACGAAGCGG | 2.41 ± 0.047
43 | GCGTGAGGCG | 1.01 ± 0.02
44 | CCGGTTTTTA | 0.996 ± 0.01
45 | AAGTTTTTCG | 1.01 ± 0.014
46 | TTGTGGGGTT | 0.984 ± 0.048

Row | Sequence | switch fluorescence ratio
47 | GGTGTTCTGA | 1.01 ± 0.023
48 | TGGAAGGTTA | 1.01 ± 0.025
49 | TTCGCGTTAG | 1.23 ± 0.29
50 | TATTTTAGTA | 1.01 ± 0.03
51 | TTTCAGCTTA | 1.15 ± 0.15
52 | ATTGGGTCGT | 0.992 ± 0.021
53 | CCCATGTATC | 1.09 ± 0.011
54 | ATTTTGAGGC | 1.02 ± 0.035
55 | GTGTGAGTGC | 1.06 ± 0.024
56 | ACTGTGTGTT | 1.01 ± 0.025
57 | ATATATGTAA | 0.994 ± 0.023
58 | AGCTTATGTC | 0.935 ± 0.057
59 | CCAGGAGGCG | 0.999 ± 0.015
60 | TCTGGACATT | 1.01 ± 0.023
61 | TATAGGGAGT | 1.01 ± 0.014
62 | TCTAAAATTA | 1.007 ± 0.0046
63 | AGCGTAGTGG | 1.027 ± 0.0061
64 | GGGAATTGTG | 0.993 ± 0.06
65 | GGGGGAGTTA | 0.989 ± 0.026
66 | TCTTGCATAG | 1.11 ± 0.025
67 | GGGGAAGCCA | 0.979 ± 0.024
68 | ATTCTTCTCA | 1.02 ± 0.028
69 | GCGAGGGGGG | 1.02 ± 0.034

Row | Sequence | switch fluorescence ratio
70 | GGGCTGACAG | 1.035 ± 0.0012
71 | TTTTGAGATA | 0.97489 ± 3.4e-05
72 | ATATAGAGGG | 0.9958 ± 0.0031
73 | TGGGACGCCG | 1.01 ± 0.015
74 | TTCATAAATT | 1.02 ± 0.023
75 | TTTATACTTT | 1.06 ± 0.1
76 | AATATAACCT | 1.94 ± 0.092
77 | GCGTTATGTG | 1.017 ± 0.01
78 | TTACATCTGG | 0.9842 ± 0.007
79 | CGGGAGCGTT | 1.12 ± 0.18
80 | TATAGGGAAT | 0.98384 ± 3.5e-05
81 | TTCGAGAGTG | 0.945 ± 0.054
82 | CGCTGGGATT | 0.9913 ± 0.0057
83 | GTTTATGCCA | 0.997 ± 0.029
84 | CGGGAGGGTG | 1.04 ± 0.038
85 | ATTTGGTGGG | 0.97 ± 0.05
86 | ATGTTGTATT | 1.01 ± 0.052
87 | AAAATTTAGG | 0.986 ± 0.03
88 | GGGTGAGTG | 0.996 ± 0.016
89 | TGGGATAGAT | 0.996 ± 0.027
90 | TAGAGGTCTT | 0.98 ± 0.016
91 | GGGCTAAAAG | 0.97428 ± 3.4e-05
92 | TTCATTAGGA | 1.01 ± 0.029

Row | Sequence | switch fluorescence ratio
93 | ATGGTAATTT | 0.977 ± 0.017
94 | TATATATTTT | 1.01 ± 0.029
95 | GACGAAAGGC | 1.05 ± 0.02
96 | ATGCAGACGA | 1.1 ± 0.013
97 | GGTCGATGAT | 0.98739 ± 0.00068
98 | TAGGGGCGAG | 0.989 ± 0.048
99 | AGGGGGTCTT | 1.01 ± 0.016
100 | GGTTACTGGT | 1.01 ± 0.03
101 | CGAAGACCAG | 1.05 ± 0.081
102 | GTGGACTTTG | 0.971 ± 0.053
103 | AAGTTTATTA | 0.964 ± 0.017
104 | GTTTGTATTA | 0.996 ± 0.011
105 | AGGGAGGAGG | 0.971 ± 0.024
106 | GTTTCGAGTA | 0.957 ± 0.049
107 | GGGTTTTACA | 0.9813 ± 0.0029
108 | GCATTGGATA | 1 ± 0.014
109 | GTTAATTTTT | 1.01 ± 0.043
110 | AAAAATGGGT | 1 ± 0.016
111 | AAGCTGGTG | 1.09 ± 0.042
112 | TTTGGCTTTG | 1.02 ± 0.05
113 | GAATAGTCAG | 0.978 ± 0.033
114 | TAAAGGGAAT | 1.02 ± 0.056
115 | AATTCAGTTT | 1.01 ± 0.033

Row | Sequence | switch fluorescence ratio
116 | GTAATTTAGT | 1.02 ± 0.022
117 | TTTTTGTATA | 0.979 ± 0.027
118 | CATGTATGGA | 1.01 ± 0.041
119 | CGGGGGTCTA | 1.01 ± 0.045
120 | TGAAAGCGCC | 1.07 ± 0.03
121 | GGAAAAAGCC | 0.9562 ± 0.0042
122 | CGTCGCTGGG | 1.0111 ± 0.00071
123 | AATATTTTTT | 1.01 ± 0.049
124 | TTTTTGGTAT | 1.01 ± 0.047
125 | CGCTAGGGAC | 1.314 ± 0.003
126 | AACCAGTGAT | 1.05 ± 0.017
127 | AGGTACTCGA | 1.05 ± 0.02
128 | CCGATTCGGG | 1.012 ± 0.0064
129 | GGTTTAAAGG | 0.996 ± 0.015
130 | CCGTATAATG | 0.98 ± 0.034
131 | TATTGTGCGG | 1.01 ± 0.037
132 | GGTTATTTGT | 0.992 ± 0.041
133 | ACGGGCTGGG | 1.1 ± 0.02
134 | CAGCTGCTGC | 1.014 ± 0.0051
135 | TTCCGGCACT | 1.09 ± 0.029
136 | GACGGGGATG | 1.03 ± 0.012
137 | AAAGTGTTTC | 0.986 ± 0.029
138 | AACTAGTGGG | 1.02 ± 0.024

Row | Sequence | switch fluorescence ratio
139 | GGTGCGGGGT | 0.983 ± 0.016
140 | GTAATAAGAT | 0.996 ± 0.0046
141 | TTTGAGGGGG | 1.01 ± 0.066
142 | GAATTATTGG | 0.975 ± 0.022
143 | AAGGGCTATA | 1.01 ± 0.047
144 | TTGAATTTGA | 1 ± 0.028
145 | CATAGAAGCT | 0.976 ± 0.048
146 | CAAGTTGTGT | 0.9774 ± 0.0087
147 | GATACGGGGC | 1.02 ± 0.014
148 | CGCACCACGA | 1.208 ± 0.0072
149 | TATTAAGGAT | 1 ± 0.031
150 | GGGTCCGGTC | 1.0075 ± 7.9e-05
151 | GTGTGGGTAT | 0.985 ± 0.016
152 | TCGGGCCAGG | 1.1 ± 0.071
153 | AGGTGCATAT | 1.045 ± 0.0041
154 | ATGCGGGGTT | 1.02 ± 0.05
155 | CCACTGGGGG | 1.04 ± 0.028
156 | GAATTGATTT | 1.009 ± 0.0065
157 | GCGATCCAAA | 1 ± 0.037
